Experimental data taken from patent US20240124575A1 (SIMCERE ZAIMING PHARMACEUTICAL, published 2024).
Read-outs that look alike come from different tables or passages of the source.

Key:
[1] = biological target: T1, monkey CD33 on HEK293T-monkey CD33 cells (monkey); assay: FACS on HEK293T-monkey CD33 cells
T1 construct: whole, on cells

[2] = biological target: T1, monkey CD33 on HEK293T-monkey CD33 cells; assay: FACS on HEK293T-monkey CD33 cells; remark: listed apart in the source
[3] = biological target: T2, monkey CD33 protein (monkey); assay: ELISA, coated monkey CD33, antibody 1 nM
T2 construct: The printed catalogue numbers for murine and monkey CD33 may be interchanged; also called monkey CD33-His protein

[4] = biological target: T2, monkey CD33 protein; assay: ELISA, coated monkey CD33, antibody 1 nM; remark: listed apart in the source
[5] = biological target: T2, monkey CD33 protein; assay: ELISA, coated monkey CD33, antibody 10 nM
[6] = biological target: T2, monkey CD33 protein; assay: ELISA, coated monkey CD33, antibody 10 nM; remark: listed apart in the source
[7] = biological target: T2, monkey CD33 protein; assay: ELISA, coated monkey CD33, antibody 0.1 nM
[8] = biological target: T2, monkey CD33 protein; assay: ELISA, coated monkey CD33, antibody 100 nM
[9] = biological target: T2, monkey CD33 protein; assay: ELISA, coated monkey CD33, antibody 0.1 nM; remark: listed apart in the source
[10] = biological target: T2, monkey CD33 protein; assay: ELISA, coated monkey CD33, antibody 100 nM; remark: listed apart in the source
[11] = biological target: T2, monkey CD33 protein; assay: ELISA, coated monkey CD33, antibody 0.01 nM
[12] = biological target: T2, monkey CD33 protein; assay: ELISA, coated monkey CD33, antibody 0.01 nM; remark: listed apart in the source
[13] = biological target: T2, monkey CD33 protein; assay: ELISA, coated monkey CD33, antibody 0.001 nM
[14] = biological target: T2, monkey CD33 protein; assay: ELISA, coated monkey CD33, antibody 0.001 nM; remark: listed apart in the source
[15] = biological target: T2, monkey CD33 protein; assay: ELISA, coated monkey CD33, antibody 0.0001 nM
[16] = biological target: T2, monkey CD33 protein; assay: ELISA, coated monkey CD33, antibody 0.0001 nM; remark: listed apart in the source
[17] = biological target: T3, human CD33-His (human, UniProt P20138 18-259); assay: SPR (Biacore), antibody captured on Protein A chip, human CD33-his as analyte
T3 construct: range 18-259; Bought protein; also called human CD33-his protein; hCD33-his; not shown: His tag
T3 sequence (P20138 18-259 limits assumed): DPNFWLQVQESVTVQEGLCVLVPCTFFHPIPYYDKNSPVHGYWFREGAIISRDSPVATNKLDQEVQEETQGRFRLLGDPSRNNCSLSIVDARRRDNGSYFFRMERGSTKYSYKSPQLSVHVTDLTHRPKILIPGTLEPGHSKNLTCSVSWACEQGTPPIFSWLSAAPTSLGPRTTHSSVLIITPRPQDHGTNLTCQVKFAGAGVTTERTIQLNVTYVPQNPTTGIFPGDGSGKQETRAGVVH
Procedure: (§1) The sample and running buffer was HBS-EP+ (10 mM HEPES, 150 mM NaCl, 3 mM EDTA, 0.05% surfactant P20) (GE Healthcare; BR-1006-69). The flow cell was set at 25° C. The sample block was set at 16° C. Both were pretreated with the running buffer. In each cycle, first, the antibody to be tested was captured using the Protein A chip, and then a single concentration of CD33 antigen protein was injected. The association and dissociation processes of the antibody with the antigen protein were recorded, and finally, the chip was regenerated using Glycine pH 1.5 (GE Healthcare; BR-1003-54). The association was determined by injecting different concentrations of recombinant human CD33-his in the solution and maintaining for 240 s, wherein the flow rate was 30 μL/min, and the protein was diluted in a 1:1 dilution ratio from 200 nM to obtain 5 concentrations in total. The dissociation phase was monitored for up to 600 s and triggered by switching from the sample solution to the running buffer. The surface was regenerated by washing with 10 mM glycine solution (pH 1.5) at a flow rate of 30 μL/min for 30 s. The difference in bulk refractive index was corrected by subtracting the responses obtained from the […]. Blank injections were also subtracted (=double reference). To calculate the apparent KD and other kinetic parameters, the Langmuir 1:1 model was used.

[18] = biological target: T3, human CD33-His; assay: as above; remark: listed apart in the source
Procedure: as §1

[19] = biological target: T2, monkey CD33 protein; assay: SPR (Biacore), antibody captured on Protein A chip, monkey CD33 protein as analyte
Procedure: as §1
(§2) The assay on affinity of VHH-Fc antibodies for monkey CD33 protein (Sino Biological, Cat. No. 50712-M08H) was performed according to the method in Example 7.1.

[20] = biological target: T2, monkey CD33 protein; assay: as above; remark: listed apart in the source
Procedure: as §1, §2

B1: C33B904 (antibody, human IgG1, kappa, V domains shown)
VH: EVQLVESGGGLVQPGRSLRLSCAASGFTFDDYAMHWVRQAPGKGLEWVSGIGWSGGSIVYADSVKGRFTISRDNAKNSLYLQMNSLRAEDTALYYCAKDSPYGDFFDYWGQGTLVTVSS
VL: DIVMTQSPDSLAVSLGERATINCKSSQTVFYSSNNKNYLAWYQQKPGQPPKLLISWASTRKSGVPDRFSGSGSGTDFTLTVSSLQAEDVAVYYCQHYYSTPYTFGQGTKLEIKR
notes: Control antibody, intact human IgG1; variable regions from US20190382481A1; also called C33B904 hIgG1; C331B904
[1]
  EC50: 5.7 nM
  Max MFI: 3590 MFI
[2]
  EC50: 4.8 nM
  Max MFI: 7880 MFI
[3]
  OD450: 2.73 OD450
[4]
  OD450: 2.52 OD450
[5]
  OD450: 3.23 OD450
[6]
  OD450: 3.09 OD450
[7]
  OD450: 0.99 OD450
[8]
  OD450: 3.4 OD450
[9]
  OD450: 1.15 OD450
[10]
  OD450: 3.06 OD450
[11]
  OD450: 0.15 OD450
[12]
  OD450: 0.29 OD450
[13]
  OD450: 0.06 OD450
[14]
  OD450: 0.07 OD450
[15]
  OD450: 0.06 OD450
[16]
  OD450: 0.04 OD450
[17]
  Kd: 0.157 nM
  koff: 4.08e-05 s⁻¹
  kon: 260000 M⁻¹ s⁻¹
[18]
  Kd: 0.155 nM
  koff: 7.44e-05 s⁻¹
  kon: 479000 M⁻¹ s⁻¹
[19]
  Kd: 0.492 nM
  koff: 0.000632 s⁻¹
  kon: 1.29e+06 M⁻¹ s⁻¹
[20]
  Kd: 0.494 nM
  koff: 0.000497 s⁻¹
  kon: 1.01e+06 M⁻¹ s⁻¹
